According to the Human Domainome abundance scans (Beltran et al. 2025):
± gives the uncertainty stated by the source.

B1: Glucocorticoid receptor, residues 419 to 494; numbered along this chain, P04150 (parent)
chain: KLCLVCSDEASGCHYGVLTCGSCKVFFKRAVEGQHNYLCAGRNDCIIDKIRRKNCPACRYRKCLQAGMNLEARKTK

Variants of: B1
Assay: abundance fitness (aPCA) (normalised: wild type 0, dead -1); higher = more abundant; growth selection in yeast, the domain comes from the species named
Conditions: Homo sapiens

Point of comparison: KLCLVCSDEASGCHYGVLTCGSCKVFFKRAVEGQHNYLCAGRNDCIIDKIRRKNCPACRYRKCLYAGMNLEARKTK [Q65Y], abundance fitness -0.09 ± 0.066. Against it:
- KLCLVCSDEASGCHYGVLTQGSCKVFFKRAVEGQHNYLCAGRNDCIIDKIRRKNCPACRYRKCLQAGMNLEARKTK [C20Q] — lower, -1.04 ± 0.2
- KLPLVCSDEASGCHYGVLTCGSCKVFFKRAVEGQHNYLCAGRNDCIIDKIRRKNCPACRYRKCLQAGMNLEARKTK [C3P] — lower, -0.84 ± 0.26
- KLCLVCSDEASGCHYGVLTCGSCKVFFKRAVEGQHNYLCAGRNDCIIDKIRSKNCPACRYRKCLQAGMNLEARKTK [R52S] — within error, -0.12 ± 0.043
- KLCLVCSDEASGCHYGVLTCGSCKVFFKRAVEGQHNYLCAGRNDCIIDKIRRKNCPACRYRKCLQAGMNLELRKTK [A72L] — within error, -0.015 ± 0.036
- KLCLVCSDEASGCHYGVLTCGSCKVFFKRAVEGQHNYLCAGRNDCIIDKIRRKNCPAIRYRKCLQAGMNLEARKTK [C58I] — lower, -0.81 ± 0.22
- KLCLVCSDEASGCHYGVLTCGSCKVFFKRAVEGQHNYLCGGRNDCIIDKIRRKNCPACRYRKCLQAGMNLEARKTK [A40G] — within error, -0.04 ± 0.031
- KLCLVCSDEASGCHYGVLTCGSCKVFFKRAVEGQHNYLCAGRNDCIIDKIRRKNCTACRYRKCLQAGMNLEARKTK [P56T] — within error, -0.06 ± 0.044
- KLCLVCSDEASGCHYGVLTCGSCKVFFKRAVEGQHLYLCAGRNDCIIDKIRRKNCPACRYRKCLQAGMNLEARKTK [N36L] — within error, -0.036 ± 0.036
- KLCLVCSDEASGCHYGVLTCGSCKVFFKRAVEGQHNYLCAGRNDCIIDKIRRKNCPACRYRKCLQAGMNLEARMTK [K74M] — within error, 0.009 ± 0.054
- KLCLVCSDEASGCHYGVLTCGSCKVFFKRAVEGQHNYLCAGRNDCIIDKIRRKNCPACRYRKCLQAGMNLEARKTD [K76D] — within error, 0.02 ± 0.068
- KLCLVCSDEASGCHYGVLTCGSCKVFFKRAVEGQHNYLCAGRNDTIIDKIRRKNCPACRYRKCLQAGMNLEARKTK [C45T] — lower, -0.99 ± 0.27
- KLCLVCSDEASGCHYGVLTCGSCKVFFKRAVEGQHYYLCAGRNDCIIDKIRRKNCPACRYRKCLQAGMNLEARKTK [N36Y] — within error, -0.259 ± 0.13
- KLCLVCSDEASGRHYGVLTCGSCKVFFKRAVEGQHNYLCAGRNDCIIDKIRRKNCPACRYRKCLQAGMNLEARKTK [C13R] — within error, -0.025 ± 0.031
- KLCLVCSDEASGCHYGVLTCGSCKVFSKRAVEGQHNYLCAGRNDCIIDKIRRKNCPACRYRKCLQAGMNLEARKTK [F27S] — lower, -0.681 ± 0.079
- KLCLVCSDEASGMHYGVLTCGSCKVFFKRAVEGQHNYLCAGRNDCIIDKIRRKNCPACRYRKCLQAGMNLEARKTK [C13M] — within error, -0.027 ± 0.038
- KLCLVCSDEASGCHYGVLTCGSCKVFFKRAVEGQHNYLCAGRNDCIIDKIRRKNCPACRYRKCLQAGMNLEARKTC [K76C] — higher, 0.132 ± 0.14
- KLCLVCSDEASGCHYGVLTYGSCKVFFKRAVEGQHNYLCAGRNDCIIDKIRRKNCPACRYRKCLQAGMNLEARKTK [C20Y] — lower, -0.782 ± 0.23
- KLCLVCSDEASGCHYGVLTCGSCKVFFKRAVEGQHNYLCAGRNDCIIDKIRRKNCPACRYRKSLQAGMNLEARKTK [C63S] — lower, -0.42 ± 0.05
- KLCLVCSDEASGCHYGVLTCGSCKVFFKRAVEGQHNYLHAGRNDCIIDKIRRKNCPACRYRKCLQAGMNLEARKTK [C39H] — lower, -0.575 ± 0.27
- KLCLVCSDEASGCHYGVLTCGSCKRFFKRAVEGQHNYLCAGRNDCIIDKIRRKNCPACRYRKCLQAGMNLEARKTK [V25R] — higher, 0.085 ± 0.044
- KLCLVCSDEASGCHYGVLTCGSCKVFFKRAVEGQHNYLCAGRNDCIIDKIRRKNCPACRYRKCLQAGMNLEARKTG [K76G] — within error, 0.018 ± 0.052
- KLCLVCSDEASGCHYGVLTCGSCKVFFKRAVEGQHNYLCAGRNDCIIDKIRRKNCPACRYRKCLQAGMNLHARKTK [E71H] — the same, -0.09 ± 0.061
- KLCLVCSDEASGCHYGVLTIGSCKVFFKRAVEGQHNYLCAGRNDCIIDKIRRKNCPACRYRKCLQAGMNLEARKTK [C20I] — lower, -1.11 ± 0.49
- KLCLVCSDEASGCHYGVLTCGSCKVFFKRAVEGQHNYLCAGRNDCIIDKIRRKNCPACRYRKCLQAGMNLEFRKTK [A72F] — lower, -0.285 ± 0.081
- KLCLVCSDEASGCHYGVLTCGSCKVFFKRAVEGQHNYLCAGRNDCIIDFIRRKNCPACRYRKCLQAGMNLEARKTK [K49F] — within error, -0.019 ± 0.065
- KLCLVCSDEASGCHYWVLTCGSCKVFFKRAVEGQHNYLCAGRNDCIIDKIRRKNCPACRYRKCLQAGMNLEARKTK [G16W] — lower, -0.83 ± 0.13
- KLCLVCSDEASGCHYGVLTCGSCKVFFKRAVTGQHNYLCAGRNDCIIDKIRRKNCPACRYRKCLQAGMNLEARKTK [E32T] — within error, -0.007 ± 0.041
- KYCLVCSDEASGCHYGVLTCGSCKVFFKRAVEGQHNYLCAGRNDCIIDKIRRKNCPACRYRKCLQAGMNLEARKTK [L2Y] — higher, 0.14 ± 0.065
- KLCLVCSDEASGCHYGVLTCGSCKVFFKRAVEGQHNYLCAGRNDCIIDKVRRKNCPACRYRKCLQAGMNLEARKTK [I50V] — higher, 0.013 ± 0.036
- KLCCVCSDEASGCHYGVLTCGSCKVFFKRAVEGQHNYLCAGRNDCIIDKIRRKNCPACRYRKCLQAGMNLEARKTK [L4C] — within error, 0.016 ± 0.049
- KLCLVCSDEASGCHYGVLTCGSCKVFFKRAVEGQHNYLCAGRNDCIIDKIRRKNCPACHYRKCLQAGMNLEARKTK [R59H] — within error, 0.014 ± 0.09
- KLCLVCSDMASGCHYGVLTCGSCKVFFKRAVEGQHNYLCAGRNDCIIDKIRRKNCPACRYRKCLQAGMNLEARKTK [E9M] — higher, 0.042 ± 0.042
- KLCLVCSDEASGCHYGVLTCGSCKVFFKNAVEGQHNYLCAGRNDCIIDKIRRKNCPACRYRKCLQAGMNLEARKTK [R29N] — within error, -0.007 ± 0.083
- KLCLVCSDEASGCHYGVLTCGSCKTFFKRAVEGQHNYLCAGRNDCIIDKIRRKNCPACRYRKCLQAGMNLEARKTK [V25T] — within error, -0.019 ± 0.062
- KLCLVCSDEASGIHYGVLTCGSCKVFFKRAVEGQHNYLCAGRNDCIIDKIRRKNCPACRYRKCLQAGMNLEARKTK [C13I] — higher, 0.112 ± 0.064
